The nature of this data set: protein stability index of a GFP-peptide fusion (GPS, HEK-293T) (PSI 1-6); higher = more stable.
Setting [1] is: treatment: DMSO, c terminus: a fixed tail appended.
[2] abbreviates: treatment: MLN4924 1 uM, 8 h, c terminus: a fixed tail appended.
Setting [3] is: treatment: DMSO, c terminus: native.
[4] abbreviates: treatment: MLN4924 1 uM, 8 h, c terminus: native.

± gives the standard deviation.
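Also: 24-mer peptide tiles fused after GFP, lentivirally expressed, FACS-sorted into six equal bins by GFP/DsRed ratio, decoded by Illumina sequencing, PSI is the read-weighted mean bin number.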

Take IVLDRALHIPMYFFLAILSCSEIC [OR10K2]: the protein stability index runs as follows: under setting [1], 3.1 ± 0.18; under setting [2], 3.19 ± 0.29. As to IVSTQITRPSGNNGNRRRRKLRKT [PHTF1], the protein stability index amounted to 4.35 ± 0.35 under setting [1] and 4.46 ± 0.23 under setting [2].

In the case of IVTLRHVLAAKERRCGELKRKLGL [TPD52L3], the protein stability index under setting [1] is 2.2 ± 0.11 and the protein stability index under setting [2] worked out at 2.18 ± 0.13. For IWKLNLQTFQWVKLPATMPEPVYF [KLHDC10], in that order: 2.82 ± 0.7 and 2.63 ± 0.33. With IWLDNLHCTGNEATLAACTSNGWG [LOXL2], the protein stability index runs as follows: under setting [1], 2.18 ± 0.31; under setting [2], 2.27 ± 0.3. Turning to IYAHRVILSACSPYFRAMFTGELA [KLHL20], the protein stability index under setting [1] amounted to 3.16 ± 0.56 and the protein stability index under setting [2] amounted to 2.9 ± 0.65.

As to KAASLARNLAKRRRTYLGGAAGRS [RSPH3], the protein stability index reads like this: under setting [1], 3.09 ± 0.34; under setting [2], 3.56 ± 0.45. In the same order, the values of KAFSRSSGLFNHRGIHNIQKRYHC [ZSCAN9] are 2.63 ± 0.39 and 2.45 ± 0.14. Take KAILKNISVLAFSVCFIFTITIGM [SLC29A1]: the protein stability index under setting [1] stood at 3.19 ± 0.29 and the protein stability index under setting [2] came out at 2.96 ± 0.44.

Sequence KAKPEPDILEEEKIYAYPSNITSE [TMEM192] yielded a protein stability index under setting [1] of 4.82 ± 0.2 and a protein stability index under setting [2] of 4.83 ± 0.2. In the same order, the values of KALLYLPIAPEVEDPEENPYGPPP [RBBP5] are 3.94 ± 0.31 and 4.07 ± 0.42. KASNSIISCFNNAPPAKLACPVCS [FAN1]: the protein stability index runs as follows: under setting [1], 2.92 ± 0.15; under setting [2], 3.1 ± 0.4. KDHSSSRPSSPRPQKASPNGSISS [BTBD10] displayed a protein stability index under setting [1] of 5.1 ± 0.42 and a protein stability index under setting [2] of 4.71 ± 0.97. For KDLQKEQKTLQVKCQHYKKKRTEQ [CEP70], in that order: 4.92 ± 0.31 and 4.87 ± 0.032. The sequence KEEGLPEEEPSHVTGREGFPTDAP [ZNF8] displayed a protein stability index under setting [1] of 5.45 ± 0.23 and a protein stability index under setting [2] of 5.57 ± 0.3. Take KEEKQRRRCKPKKPTRRDASPESP [GNAS]: the protein stability index stood at 5.43 ± 0.18 under setting [1] and 5.47 ± 0.11 under setting [2]. KEENEAESDVKHRTRDYKKTSLAP [PRIM1] had a protein stability index under setting [1] of 5.37 ± 0.23 and a protein stability index under setting [2] of 5.37 ± 0.41. KEGDCAPEEKIWEELSVLEVFEGR [MAGEA6]: the protein stability index is, setting by setting: under setting [1], 4.96 ± 0.16; under setting [2], 4.87 ± 0.47. With KELRDGGEQDTWAGEGAEALARNL [NFE2L1], the protein stability index is, setting by setting: under setting [1], 5.26 ± 0.25; under setting [2], 5.36 ± 0.27. In turn, KFENLCKLMKEILDKKVEKVTISN [HSP90AB1] registered a protein stability index under setting [2] of 2.75 ± 0.38.

Regarding KGSFGKVCIVQKNDTKKMYAMKYM [STK32A], the protein stability index was found to be 2.49 ± 0.41 under setting [1] and 2.41 ± 0.23 under setting [2]. In the case of KHYRFTHAEIIAWIRICRPGSIIG [CDC14A], the protein stability index under setting [1] is 2.55 ± 0.15 and the protein stability index under setting [2] is 2.83 ± 0.67. On to KIQLRLAGQKRKHSEGRVEVYYDG [LOXL2], for which the protein stability index is, setting by setting: under setting [1], 3.09 ± 0.33; under setting [2], 3.88 ± 0.67. As to KISKQFVAPADVRRLLSYCKGRDH [ZSWIM9], the protein stability index by setting is: under setting [1], 2.49 ± 0.32; under setting [2], 2.81 ± 0.27. For KKHAAYAWPFYKPVDAEALELHDY [BRD3], the protein stability index is, setting by setting: under setting [1], 2.97 ± 0.39; under setting [2], 2.96 ± 0.38. For KLEKSIDSYYRLVIHRALDREQVS [PCDHGA10], in that order: 2.55 ± 1 and 2.48 ± 0.84.

In the case of KLQYQLRNVRERIAKNLVEKGILT [GOLPH3L], the protein stability index was found to be 2.17 ± 0.16 under setting [1] and 2.28 ± 0.19 under setting [2]. As to KLSETFLQIYQYVPKDQRLQAIKA [DLC1], the protein stability index reads like this: under setting [1], 2.12 ± 0.38; under setting [2], 2.28 ± 0.44. As to KNKPKKMGHIKPDLIDVDLIRGST [PHTF1], the protein stability index is 3.8 ± 0.28 under setting [1] and 4.04 ± 0.2 under setting [2]. Turning to KPLLGSAVLGLLLVLAAVVAWCYY [MYORG], the protein stability index by setting is: under setting [1], 2.11 ± 0.4; under setting [2], 2.25 ± 0.24. In the case of KQIVSAVAHCHQSAIVLGDLKLRK [TRIB1], the protein stability index under setting [1] was found to be 2.77 ± 0.18 and the protein stability index under setting [2] was found to be 2.72 ± 0.27. In the case of KQPRKKRGRYRQYNSEILEEAISV [LCOR], the protein stability index reads like this: under setting [1], 3.92 ± 0.16; under setting [2], 3.98 ± 0.13.

As for KRGPSSRSGGPPPKKSAPSAVARS [RBMY1A1], the protein stability index under setting [1] was determined as 4.47 ± 0.12 and the protein stability index under setting [2] worked out at 4.78 ± 0.39. In the case of KRIKVPDYKDRSVFGVPLTVNVQR [DLC1], the protein stability index is 3.02 ± 0.42 under setting [1] and 3.09 ± 0.35 under setting [2]. Regarding KRYESHPVCADLQAKILQCYRENT [CHCHD3], the protein stability index is, setting by setting: under setting [1], 3.18 ± 0.23; under setting [2], 3.55 ± 0.26. In the same order, the values of KSLDNMPNDEHWKALSRKSTSFRV [FBXO33] are 3.4 ± 0.11 and 3.56 ± 0.21. For KTQIVCKHFLEAIENNKYGWFWVC [ZC3H15], in that order: 2.62 ± 0.52 and 3.09 ± 0.54. KTSVEKANAQIQILTRSWEEVSTL [CD207]: the protein stability index under setting [1] amounted to 3.48 ± 0.14 and the protein stability index under setting [2] came out at 3.77 ± 0.26.

For the sequence KVLRRWVDEEWPKRERGDPSRHF [EDARADD], the protein stability index came out at 3.21 ± 0.43 under setting [3] and 3.42 ± 0.2 under setting [4]. Regarding KVMIFKSSYSLSDMVSNIELPTRI [MIA2], the protein stability index is, setting by setting: under setting [1], 1.88 ± 0.56; under setting [2], 2.17 ± 0.12.

In the case of KVRQLERDNAELENLIRERSQQQE [KRT33B], the protein stability index under setting [1] came to 5.11 ± 0.3 and the protein stability index under setting [2] came to 5.13 ± 0.28. For the sequence KVVECLDHARGKSQVALKIIRNVG [CLK3], the protein stability index under setting [1] worked out at 2.24 ± 0.21 and the protein stability index under setting [2] is 2.22 ± 0.36. For KYFGCELGAQTQFDVKNDRYIVNG [EIF5], in that order: 3.08 ± 0.35 and 3.27 ± 0.26. In the same order, the values of KYIHRMMQIEFIKQGSMNFRFIPV [TRAF3IP2] are 3.659 ± 0.005 and 2.21 ± 1.1. As for KYVVSGFDVDHGICIMDAENITTV [WDR88], the protein stability index runs as follows: under setting [1], 2.28 ± 0.32; under setting [2], 2.25 ± 0.25. In turn, LAEAKYYLVQGLVEECQAALQNKD [KCTD10] showed a protein stability index under setting [1] of 3.24 ± 0.17 and a protein stability index under setting [2] of 3.38 ± 0.29. For LALLNLACMMTITFLPYTFSLMVT [TMEM175], the protein stability index under setting [1] worked out at 3.27 ± 0.32 and the protein stability index under setting [2] is 3.38 ± 0.27. Regarding LALVTLLSFATRFHRLDEPPHICW [POMT2], the protein stability index under setting [1] was determined as 3.25 ± 0.61 and the protein stability index under setting [2] amounted to 3.19 ± 0.22.

In the case of LAPVPTHSTVSELSRSPVATATSC [DUSP5], the protein stability index under setting [1] was 4.24 ± 0.3 and the protein stability index under setting [2] was 4.17 ± 0.15.

For the sequence LAQLLDTLLAIGTKLPENQAIQMR [INTS4], the protein stability index came to 3.12 ± 0.73 under setting [1] and 2.76 ± 0.5 under setting [2].

As to LASGRIILILEGGYNLTSISESMA [HDAC6], the protein stability index reads like this: under setting [1], 2.63 ± 0.14; under setting [2], 2.82 ± 0.79. For LATLDPLALDREPPPHLLPEKHQV [WDR88], in that order: 4.06 ± 0.22 and 4.24 ± 0.16. For LCAYGFFASLRPSEPFLTPYLLGP [SLC19A2], in that order: 2.94 ± 0.32 and 2.9 ± 0.56. As for LCCEWLRPEKHTKEQILEFLVLEQ [ZNF232], the protein stability index reads like this: under setting [1], 2.23 ± 0.31; under setting [2], 2.24 ± 0.27. On to LCKNCFYLSNARPDNWFCYPCIPN [ZMYND11], for which the protein stability index was found to be 2.2 ± 0.29 under setting [1] and 2.23 ± 0.053 under setting [2]. In the case of LCMDWCKDKRRIVSSSQDGKVIVW [GNB5], the protein stability index is, setting by setting: under setting [1], 2.17 ± 0.14; under setting [2], 2.33 ± 0.16. Take LDMELGPSQGQETNEVCEQAGGGA [ADAMTSL2]: the protein stability index by setting is: under setting [1], 5.33 ± 0.52; under setting [2], 5.27 ± 0.54.

With LDNSRSILKRRYYRQHCTLELGSY [CTDNEP1], the protein stability index reads like this: under setting [1], 2.34 ± 0.45; under setting [2], 2.42 ± 0.31. For the sequence LDPDTMHARLRLSADRLTVRCGLL [TRIM14], the protein stability index runs as follows: under setting [1], 2.51 ± 0.16; under setting [2], 2.48 ± 0.25. Consider LDSIIDDRVILSSSTSCLMPSKLF [CRYL1], for which the protein stability index runs as follows: under setting [1], 2.71 ± 0.38; under setting [2], 2.77 ± 0.21.

On to LEDFFVMSDYRGFGIGSEILKNLS [SAT1], for which the protein stability index runs as follows: under setting [1], 2.38 ± 0.14; under setting [2], 2.28 ± 0.44.

Take LEDSTMGSVADTVARVLRGCLENM [PLK2]: the protein stability index reads like this: under setting [1], 2.79 ± 0.32; under setting [2], 2.96 ± 0.38. With LEGKTFYSKKDRPLCKSHAFSHV [PDLIM7], the protein stability index came to 3.36 ± 0.44 under setting [3] and 3.83 ± 0.75 under setting [4].

In turn, LEISDQEVLEWYTAKDFIVGKSLT [EFHC1] registered a protein stability index under setting [1] of 3.06 ± 0.22 and a protein stability index under setting [2] of 2.92 ± 0.3. Consider LEIVGREGVSLTAVLTTHHHWDHA [HAGHL], for which the protein stability index was 2.59 ± 0.34 under setting [1] and 2.32 ± 0.44 under setting [2]. As to LELLSAPELKSLAKTFHLVNPNGQ [FAN1], the protein stability index was 2.74 ± 0.13 under setting [1] and 2.84 ± 0.095 under setting [2]. With LETRFKIQQLLEPQQYMAFLPHHI [FBXO34], the protein stability index was found to be 2.36 ± 0.49 under setting [1] and 2.27 ± 0.33 under setting [2].

As to LFILSTLVVDYIDEGRLVLEFSLL [SOAT1], the protein stability index reads like this: under setting [1], 3.28 ± 0.57; under setting [2], 2.88 ± 0.96. Take LGGRALMNCLPSNRTLWRLDLAGN [LRRC45]: the protein stability index was 2.5 ± 0.41 under setting [1] and 2.32 ± 0.28 under setting [2]. On to LGPELIKESNANPIFMRKDTKMSF [DPCD], for which the protein stability index reads like this: under setting [1], 3.46 ± 0.084; under setting [2], 3.43 ± 0.2. For LGSWLVPFAYLTVLDLSKSLSAAL [POMT2], the protein stability index is 3.19 ± 0.56 under setting [1] and 3.34 ± 0.37 under setting [2].

In turn, LHAELCQAGSSQGLSLCQFQNFSL [LPCAT4] came in with a protein stability index under setting [1] of 2.42 ± 0.33 and a protein stability index under setting [2] of 2.21 ± 0.13.

Values taken from the supplement of paper PMC10567573.
